Test results reported in patent US20230416942A1 (YALE UNIVERSITY, published 2023).
Each block holds one binder with its values, some of them ahead of it.

Columns and labels:
[1] = target: T1, TNFSF18 (recombinant human protein) (human, UniProt Q9UNG2 52-177, limits assumed); experiment: ELISA, recombinant human protein coated, nanobody-Fc titrated, anti-human IgG HRP
T1 construct: Recombinant human protein immobilized at 5 ug/mL for ELISA
T1 sequence (looked up): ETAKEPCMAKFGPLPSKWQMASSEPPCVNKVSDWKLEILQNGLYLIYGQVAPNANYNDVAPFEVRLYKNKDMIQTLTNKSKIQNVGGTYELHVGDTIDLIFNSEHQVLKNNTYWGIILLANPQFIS
Description: (§1) Recombinant human protein was diluted in PBS to a final concentration of 5 μg/mL and was immobilized on 96-well flat bottom MaxiSorp plates (Thermo Fisher Scientific) and placed at 4° C. overnight. Plates were washed three times with 225 μL ELISA wash buffer (PBS with 0.05% Tween 20) and 200 μL ELISA blocking buffer (PBS with 1% Casein) was added to the well. Plates were incubated with shaking for 2 hours at room temperature. ELISA blocking buffer was removed from the wells and appropriate dilutions of recombinant nanobodies in 100 μL ELISA blocking buffer was added to each well. Plates were incubated with shaking for 2 hours at room temperature. Plates were washed 3 times with 225 μL ELISA wash buffer and 1:5000 goat anti-human IgG HRP (Millipore Sigma) in 100 μL ELISA blocking buffer was added to the wells. Plates were incubated with shaking for 1 hour at room temperature. Plates were washed 6 times with 225 μL ELISA wash buffer. 50 μL TMB substrate (BD Biosciences) was added to the wells and plates were incubated for 15 minutes in the dark at room temperature. 50 μL 1 M sulfuric acid was added to the wells and absorbance at 450 nm was measured in a Synergy HTX Multi-Mode Microplate Reader (BioTek).

REAP Off-Targets = experiment: REAP, nanobody-Fc on yeast-displayed human antigen library
IL13 = target: T2, IL13 (human, UniProt P35225 35-146, limits assumed); experiment: ELISA, plate-coated recombinant human protein, nanobody-Fc
T2 construct: Recombinant human protein in ELISA
T2 sequence (P35225 35-146 limits assumed): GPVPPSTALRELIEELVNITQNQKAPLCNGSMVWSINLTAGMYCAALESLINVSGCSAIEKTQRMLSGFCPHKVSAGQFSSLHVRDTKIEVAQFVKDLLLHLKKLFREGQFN
Description: as §1

CEACAM4 = target: T3, CEACAM4 (human, UniProt O75871 36-155, limits assumed); experiment: as above
T3 construct: Recombinant human protein in ELISA
T3 sequence (looked up): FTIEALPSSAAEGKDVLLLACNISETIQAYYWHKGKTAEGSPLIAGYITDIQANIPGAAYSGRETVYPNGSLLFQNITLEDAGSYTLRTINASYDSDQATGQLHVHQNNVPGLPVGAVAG
Description: as §1

[2] = target: T4, TNF (recombinant human protein) (human, UniProt P01375 77-233); experiment: ELISA, recombinant human protein coated, nanobody-Fc titrated, anti-human IgG HRP
T4 construct: Recombinant human protein immobilized at 5 ug/mL for ELISA
T4 sequence (P01375 77-233 limits assumed): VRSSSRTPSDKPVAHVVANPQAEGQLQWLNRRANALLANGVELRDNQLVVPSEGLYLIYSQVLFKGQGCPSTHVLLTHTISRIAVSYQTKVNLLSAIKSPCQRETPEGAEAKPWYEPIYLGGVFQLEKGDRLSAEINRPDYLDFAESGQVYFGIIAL
Description: as §1

CD3D = target: T5, CD3D (human, UniProt P04234 22-105); experiment: ELISA, plate-coated recombinant human protein, nanobody-Fc
T5 construct: Recombinant human protein in ELISA
T5 sequence (P04234 22-105 limits assumed): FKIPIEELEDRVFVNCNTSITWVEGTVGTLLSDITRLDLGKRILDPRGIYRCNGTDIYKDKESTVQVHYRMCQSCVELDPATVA
Description: as §1

TIGIT = target: T6, TIGIT (human, UniProt Q495A1 22-141); experiment: as above
T6 construct: Recombinant human protein in ELISA
T6 sequence (looked up): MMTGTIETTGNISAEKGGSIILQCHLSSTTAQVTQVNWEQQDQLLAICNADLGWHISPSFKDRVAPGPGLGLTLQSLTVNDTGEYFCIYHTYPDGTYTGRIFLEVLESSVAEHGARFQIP
Description: as §1

IL21 = target: T7, IL21 (human, UniProt Q9HBE4 32-162, limits assumed); experiment: as above
T7 construct: Recombinant human protein in ELISA
T7 sequence (Q9HBE4 32-162 limits assumed): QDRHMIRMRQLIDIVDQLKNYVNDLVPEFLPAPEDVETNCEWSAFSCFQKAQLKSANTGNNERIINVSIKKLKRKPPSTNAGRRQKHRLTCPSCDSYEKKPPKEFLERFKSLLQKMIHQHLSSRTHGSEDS
Description: as §1

CCL16 = target: T8, CCL16 (human, UniProt O15467 24-120); experiment: as above
T8 construct: Recombinant human protein in ELISA and BLI
T8 sequence (looked up): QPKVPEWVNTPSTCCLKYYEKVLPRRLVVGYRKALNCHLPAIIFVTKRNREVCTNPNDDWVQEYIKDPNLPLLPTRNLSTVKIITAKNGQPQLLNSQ
Description: as §1

IL17A [3] = target: T9, IL17A (human, UniProt Q16552 24-155); experiment: as above
T9 construct: Recombinant human protein in ELISA and BLI
T9 sequence (looked up): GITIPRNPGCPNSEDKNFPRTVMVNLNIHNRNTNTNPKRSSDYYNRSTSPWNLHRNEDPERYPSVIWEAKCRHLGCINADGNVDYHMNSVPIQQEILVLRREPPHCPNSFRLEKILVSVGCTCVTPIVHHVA
Description: as §1

IL17A [4] = target: T9, IL17A; experiment: BLI, AHC sensor, nanobody-Fc captured, antigen in solution
Source text: Octet RED96 System (ForteBio) was used to perform kinetic measurement of nanobody binding to antigens. For Anti-Penta-His Biosensors (HIS1K), his-tagged recombinant human proteins were first immobilized onto the biosensors, and recombinant nanobodies fused with human IgG1 were applied to detect binding. For Anti-Human IgG Fc Capture Biosensors (AHC), recombinant nanobodies fused with human IgG1 were first loaded onto the biosensors, and probes were dipped in serial dilutions of recombinant human antigens.

EC50 [1]: 71.8 nM | REAP Off-Targets (number) (REAP Off-Targets): 1 off-targets
B1: TNFSF18_Nb94 (Fc fusion)
chain: QVQLQESGGGLVQAGGSLRLSCAASGNISLYYDMGWYRQAPGKERELVAAIDPGTITYYADSVKGRFTISRDNAKNTVYLQMNSLKPEDTAVYYCAVVIPDYVYRYVVGTVDYGYWGQGTQVTVSS
notes: Nanobody expressed as an Fc fusion protein (fused with human IgG1) in Expi293 cells; not shown: human IgG1 Fc; nanobodies expressed as Fc fusion from vector pCER243

EC50 (IL13): 1.02 nM
B2: IL13_Nb2.41 (Fc fusion)
chain: QVQLQESGGGLVQAGGSLRLSCAASGTIFVDEFMGWYRQAPGKEREFVASINDGGSTYYADSVKGRFTISRDNAKNTVYLQMNSLKPEDTAVYYCAVFEPSPDGDPFGDRAWFWYWGQGTQVTVSS
notes: Nanobody expressed and tested as Fc fusion (human IgG1); not shown: human IgG1 Fc (vector pCER243)

EC50 (CEACAM4): 32.7 nM
B3: CEACAM4_Nb41 (Fc fusion)
chain: QVQLQESGGGLVQAGGSLRLSCAASGTISRSSIMGWYRQAPGKEREFVAGISYGSTTYYADSVKGRFTISRDNAKNTVYLQMNSLKPEDTAVYYCAVRDLYVWDHAYWGQGTQVTVSS
notes: as for B2

EC50 [1]: 6.05 nM | REAP Off-Targets (number) (REAP Off-Targets): 4 off-targets
B4: TNFSF18_Nb98 (Fc fusion)
chain: QVQLQESGGGLVQAGGSLRLSCAASGSIFYVIAMGWYRQAPGKERELVATITAGTNTYYADSVKGRFTISRDNAKNTVYLQMNSLKPEDTAVYYCAVYALQQDVYDRSHAYWGQGTQVTVSS
notes: as for B1

EC50 [2]: 5.57 nM | REAP Off-Targets (number) (REAP Off-Targets): 2 off-targets
B5: TNF_Nb105 (Fc fusion)
chain: QVQLQESGGGLVQAGGSLRLSCAASGTISVTYFMGWYRQAPGKERELVAGIGTGANTYYADSVKGRFTISRDNAKNTVYLQMNSLKPEDTAVYYCAAYIGAPVYGDGQSRNKAKVYDYWGQGTQVTVSS
notes: as for B1

EC50 (CD3D): 0.575 nM
B6: CD3D_Nb2.34 (Fc fusion)
chain: QVQLQESGGGLVQAGGSLRLSCAASGTISTLDYMGWYRQAPGKEREFVAAINYGSNTYYADSVKGRFTISRDNAKNTVYLQMNSLKPEDTAVYYCAAADVTRPAYDYWGQGTQVTVSS
notes: as for B2

EC50 (TIGIT): 29.8 nM
B7: TIGIT_Nb2.81 (Fc fusion)
chain: QVQLQESGGGLVQAGGSLRLSCAASGTISLLEYMGWYRQAPGKEREFVAAITGGSSTNYADSVKGRFTISRDNAKNTVYLQMNSLKPEDTAVYYCAASLVPYDKDNLFFGYWGQGTQVTVSS
notes: as for B2

EC50 (CEACAM4): 14.5 nM
B8: CEACAM4_Nb40 (Fc fusion)
chain: QVQLQESGGGLVQAGGSLRLSCAASGTISPGYGMGWYRQAPGKEREFVATIAFGSSTYYADSVKGRFTISRDNAKNTVYLQMNSLKPEDTAVYYCAVAIYIPYFFRYWGQGTQVTVSS
notes: as for B2

EC50 (IL21): 7.16 nM
B9: IL21_Nb2.30 (Fc fusion)
chain: QVQLQESGGGLVQAGGSLRLSCAASGTIFRETVMGWYRQAPGKERELVAAIDDGTSTYYADSVKGRFTISRDNAKNTVYLQMNSLKPEDTAVYYCAARASYTYGRLRFRYWGQGTQVTVSS
notes: as for B2

EC50 [2]: 23.8 nM | REAP Off-Targets (number) (REAP Off-Targets): 7 off-targets
B10: TNF_Nb109 (Fc fusion)
chain: QVQLQESGGGLVQAGGSLRLSCAASGYISGEWFMGWYRQAPGKERELVAGISRGSTTYYADSVKGRFTISRDNAKNTVYLQMNSLKPEDTAVYYCAVYLTHKGYDGADGVVHHRYWGQGTQVTVSS
notes: as for B1

EC50 (CD3D): 29.6 nM
B11: CD3D_Nb2.36 (Fc fusion)
chain: QVQLQESGGGLVQAGGSLRLSCAASGSISAYWAMGWYRQAPGKEREFVAAINFGANTYYADSVKGRFTISRDNAKNTVYLQMNSLKPEDTAVYYCAAERDGDYHDYWGQGTQVTVSS
notes: as for B2

EC50 (IL13): 38.4 nM
B12: IL13_Nb2.42 (Fc fusion)
chain: QVQLQESGGGLVQAGGSLRLSCAASGTISATDFMGWYRQAPGKERELVAAINHGGSTYYADSVKGRFTISRDNAKNTVYLQMNSLKPEDTAVYYCAAARDDYPWHDYWGQGTQVTVSS
notes: as for B2

EC50 (CD3D): 8.22 nM
B13: CD3D_Nb2.33 (Fc fusion)
chain: QVQLQESGGGLVQAGGSLRLSCAASGSIFYAEYMGWYRQAPGKEREFVAAITAGSTTYYADSVKGRFTISRDNAKNTVYLQMNSLKPEDTAVYYCAADGYYYGIEFTYYEYWGQGTQVTVSS
notes: as for B2

EC50 (TIGIT): 483 nM
B14: TIGIT_Nb2.84 (Fc fusion)
chain: QVQLQESGGGLVQAGGSLRLSCAASGNISYVRWMGWYRQAPGKERELVAGIGVGGITNYADSVKGRFTISRDNAKNTVYLQMNSLKPEDTAVYYCAATDVDWILYRYWGQGTQVTVSS
notes: as for B2

EC50 (CCL16): 1.78 nM
B15: CCL16_Nb2.5 (Fc fusion)
chain: QVQLQESGGGLVQAGGSLRLSCAASGYIFGVYDMGWYRQAPGKERELVATISAGGTTNYADSVKGRFTISRDNAKNTVYLQMNSLKPEDTAVYYCAAYTDYSPYDGAALVYWGQGTQVTVSS
notes: as for B2

EC50 (TIGIT): 12.8 nM
B16: TIGIT_Nb2.82 (Fc fusion)
chain: QVQLQESGGGLVQAGGSLRLSCAASGTISVVQDMGWYRQAPGKERELVAGIAKGGNTYYADSVKGRFTISRDNAKNTVYLQMNSLKPEDTAVYYCAASPIPFSYAYPAYHYWGQGTQVTVSS
notes: as for B2

EC50 (CD3D): 1.72 nM
B17: CD3D_Nb2.35 (Fc fusion)
chain: QVQLQESGGGLVQAGGSLRLSCAASGTIFAYWYMGWYRQAPGKEREFVAAIGDGSSTYYADSVKGRFTISRDNAKNTVYLQMNSLKPEDTAVYYCAAEAPGYGHTYWGQGTQVTVSS
notes: as for B2

EC50 [1]: 4.07 nM | REAP Off-Targets (number) (REAP Off-Targets): 6 off-targets
B18: TNFSF18_Nb96 (Fc fusion)
chain: QVQLQESGGGLVQAGGSLRLSCAASGNISWVYWMGWYRQAPGKERELVAGIATGGSTNYADSVKGRFTISRDNAKNTVYLQMNSLKPEDTAVYYCAVVASNGSRFWYWGQGTQVTVSS
notes: as for B1

EC50 (IL17A [3]): 0.249 nM | Kd (IL17A [4]): 0.977 nM
B19: IL17A_Nb2.90 (Fc fusion)
chain: QVQLQESGGGLVQAGGSLRLSCAASGYISLRFYMGWYRQAPGKEREFVATIDDGSSTYYADSVKGRFTISRDNAKNTVYLQMNSLKPEDTAVYYCAVTAQTYYDHVYWGQGTQVTVSS
notes: as for B2

EC50 (CEACAM4): 15.6 nM
B20: CEACAM4_Nb36 (Fc fusion)
chain: QVQLQESGGGLVQAGGSLRLSCAASGNIFLGPYMGWYRQAPGKEREFVASINYGASTNYADSVKGRFTISRDNAKNTVYLQMNSLKPEDTAVYYCAAGYYSNDYYYYEYSYWGQGTQVTVSS
notes: as for B2

EC50 (IL21): 3.73 nM
B21: IL21 Nb2.29 (Fc fusion)
chain: QVQLQESGGGLVQAGGSLRLSCAASGNISWGTIMGWYRQAPGKEREFVAAISHGANTNYADSVKGRFTISRDNAKNTVYLQMNSLKPEDTAVYYCAAQSRAGSTRPRYHKYWGQGTQVTVSS
notes: as for B2

EC50 (IL21): 3.14 nM
B22: IL21_Nb2.28 (Fc fusion)
chain: QVQLQESGGGLVQAGGSLRLSCAASGSISNTYVMGWYRQAPGKERELVAAIGHGGTTYYADSVKGRFTISRDNAKNTVYLQMNSLKPEDTAVYYCAVYLSRVRKFYYWGQGTQVTVSS
notes: as for B2

EC50 (IL17A [3]): 0.179 nM | Kd (IL17A [4]): 0.656 nM
B23: IL17A_Nb2.92 (Fc fusion)
chain: QVQLQESGGGLVQAGGSLRLSCAASGTISQGDYMGWYRQAPGKEREFVASIAIGTITYYADSVKGRFTISRDNAKNTVYLQMNSLKPEDTAVYYCAVSVQFSYDFYYWGQGTQVTVSS
notes: as for B2
